Patent publication US20250115678A1 (AstraZeneca / MedImmune, published 2025)

How the values were obtained:
[1] = biological target: T1, human LRRC15 recombinant extracellular domain protein (human, UniProt Q8TF66 22-538); experiment: SPR single-cycle kinetics (Biacore 8K+), TCE captured on Protein G chip, LRRC15 ECD as analyte, 1:1 fit, average of 3 or 4 replicates
T1 construct: extracellular domain; also called LRRC15 human
T1 sequence (looked up): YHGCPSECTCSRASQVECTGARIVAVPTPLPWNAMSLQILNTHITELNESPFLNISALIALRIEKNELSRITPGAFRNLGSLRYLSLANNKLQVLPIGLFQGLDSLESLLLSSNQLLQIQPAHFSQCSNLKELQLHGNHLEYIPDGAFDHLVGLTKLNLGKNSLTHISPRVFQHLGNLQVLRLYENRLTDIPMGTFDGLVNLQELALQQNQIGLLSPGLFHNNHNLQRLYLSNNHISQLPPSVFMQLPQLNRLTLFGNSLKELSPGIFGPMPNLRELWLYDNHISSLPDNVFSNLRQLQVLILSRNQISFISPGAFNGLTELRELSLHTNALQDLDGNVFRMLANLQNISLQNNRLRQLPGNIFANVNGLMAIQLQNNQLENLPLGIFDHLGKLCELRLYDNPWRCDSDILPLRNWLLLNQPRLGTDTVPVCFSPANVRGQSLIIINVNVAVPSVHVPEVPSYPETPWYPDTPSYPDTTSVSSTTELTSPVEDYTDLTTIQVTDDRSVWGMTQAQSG
Text: (§1) The fully corrected binding data were globally fitted to a 1:1 binding model to determine the KD using the Biacore™ Insight Evaluation Software (CYTIVA). Coloured sensorgram trace represents the raw data and black line the global 1:1 fit to that data. Values for kinetics parameters is shown in Table 8 are averages for 3 or 4 replicate sets of measurements.

[2] = biological target: T2, cyno LRRC15 recombinant extracellular domain protein (cyno, UniProt G7NYR2 22-538); experiment: as above
T2 construct: extracellular domain; also called LRRC15 cyno
Text: as §1

[3] = biological target: T3, human EphB6 on transiently transfected Ad293 cells (human, UniProt O15197 32-1021); experiment: Flow cytometry on Ad293 cells transiently transfected with human EphB6 (off-target binding)
T3 construct: whole, on cells; also called EphB6-expressing cells
T3 sequence (looked up): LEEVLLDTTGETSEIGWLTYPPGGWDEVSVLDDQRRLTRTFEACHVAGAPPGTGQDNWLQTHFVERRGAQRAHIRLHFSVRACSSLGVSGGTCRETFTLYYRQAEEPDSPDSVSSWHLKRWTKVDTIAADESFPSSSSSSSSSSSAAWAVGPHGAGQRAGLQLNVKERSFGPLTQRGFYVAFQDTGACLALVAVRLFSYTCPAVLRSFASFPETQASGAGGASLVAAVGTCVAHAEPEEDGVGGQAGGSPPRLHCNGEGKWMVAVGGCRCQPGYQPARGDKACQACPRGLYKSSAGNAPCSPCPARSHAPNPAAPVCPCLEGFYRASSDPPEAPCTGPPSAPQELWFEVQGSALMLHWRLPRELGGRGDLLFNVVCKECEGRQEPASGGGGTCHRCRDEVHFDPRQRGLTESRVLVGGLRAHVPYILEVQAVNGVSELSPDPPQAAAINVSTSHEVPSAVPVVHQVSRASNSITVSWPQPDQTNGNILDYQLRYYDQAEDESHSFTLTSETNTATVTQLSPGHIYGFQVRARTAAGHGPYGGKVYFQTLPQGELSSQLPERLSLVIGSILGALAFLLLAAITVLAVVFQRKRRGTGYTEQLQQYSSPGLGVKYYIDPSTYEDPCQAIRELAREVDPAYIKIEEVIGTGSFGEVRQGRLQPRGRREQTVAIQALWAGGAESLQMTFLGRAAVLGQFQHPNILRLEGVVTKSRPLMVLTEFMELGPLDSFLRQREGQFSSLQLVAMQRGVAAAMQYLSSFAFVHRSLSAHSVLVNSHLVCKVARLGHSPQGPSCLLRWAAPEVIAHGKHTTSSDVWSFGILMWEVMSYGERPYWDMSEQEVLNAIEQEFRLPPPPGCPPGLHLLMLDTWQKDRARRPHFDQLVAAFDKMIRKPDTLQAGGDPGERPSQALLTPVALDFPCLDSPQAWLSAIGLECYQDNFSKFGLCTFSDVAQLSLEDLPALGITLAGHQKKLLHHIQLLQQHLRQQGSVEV
Text: Ad293 cells were transiently transfected with a plasmid expressing human EphB6.

Binder	Kd [1] [nM]	Kd [2] [nM]	binding result [3]
TPP-46959 (other, T-cell engager in the CD8/TCR format: 2x LRRC15 Fab, 1x TCR VHH, 1x CD8 VHH; Residue 55 of L-CDR2 is E) light: not shown heavy 1: EVQLVQSGAEVKKPGASVKVSCKASGYKFSSYWIEWVKQAPGQGLEWIGEILPGSDTTNYAQKFQDRVTFTSDTSISTAYMELSRLRSDDTAVYYCARDRGNYRAWFGYWGQGTLVTVSSASTKGPSVFPLAPSSKSTSGGTAALGCLVKDYFPEPVTVSWNSGALTSGVHTFPAVLQSSGLYSLSSVVTVPSSSLGTQTYICNVNHKPSNTKVDKRVEPKSCDKTGGSEVQLVESGGGLVQPGGSLRLSCVASGDVHKINFLGWYRQAPGKEREKVAHISIGDQTDYADSAKGRFTISRDESKNMVYLQMNSLKPEDTAVYFCRAFSRIYPYDYWGQGTLVTVSSGGGGSTHTCPPCPAPPVAGPSVFLFPPKPKDTLMISRTPEVTCVVVDVKHEDPEVKFNWYVDGVEVHNAKTKPREEQYNSTYRVVSVLTVLHQDWLNGKEYKCKVSNKALPAPIEKTISKAKGQPREPQVCTLPPSREEMTKNQVSLSCAVKGFYPSDIAVEWESNGQPENNYKTTPPVLDSDGSFFLVSKLTVDKSRWQQGNVFSCSVMHEALHNRFTQKSLSLSPGK heavy 2: EVQLVQSGAEVKKPGASVKVSCKASGYKFSSYWIEWVKQAPGQGLEWIGEILPGSDTTNYAQKFQDRVTFTSDTSISTAYMELSRLRSDDTAVYYCARDRGNYRAWFGYWGQGTLVTVSSASTKGPSVFPLAPSSKSTSGGTAALGCLVKDYFPEPVTVSWNSGALTSGVHTFPAVLQSSGLYSLSSVVTVPSSSLGTQTYICNVNHKPSNTKVDKRVEPKSCDKTGGSEVQLLESGGGLVQPGGSLRLSCAASGFTFTDYAIGWFRQAPGKEREGVSCIRVSDGSTYYADSVKGRFTISRDSSKNTLYLQMNSLRAEDTAVYYCAAGSLYTCVQSIVWPARPYYDMDYWGQGTLVTVSSGGGGSTHTCPPCPAPPVAGPSVFLFPPKPKDTLMISRTPEVTCVVVDVKHEDPEVKFNWYVDGVEVHNAKTKPREEQYNSTYRVVSVLTVLHQDWLNGKEYKCKVSNKALPAPIEKTISKAKGQPREPQVYTLPPCREEMTKNQVSLWCLVKGFYPSDIAVEWESNGQPENNYKTTPPVLDSDGSFFLYSKLTVDKSRWQQGNVFSCSVMHEALHNHYTQKSLSLSPGK	1.34	3	binds
TPP-46956 (other, T-cell engager in the CD8/TCR format: 2x LRRC15 Fab, 1x TCR VHH, 1x CD8 VHH) light: not shown heavy 1: EVQLVQSGAEVKKPGASVKVSCKASGYKFSSYWIEWVKQAPGQGLEWIGEILPGSDTTNYAQNFQDRVTFTSDTSISTAYMELSRLRSDDTAVYYCARDRGNYRAWFGYWGQGTLVTVSSASTKGPSVFPLAPSSKSTSGGTAALGCLVKDYFPEPVTVSWNSGALTSGVHTFPAVLQSSGLYSLSSVVTVPSSSLGTQTYICNVNHKPSNTKVDKRVEPKSCDKTGGSEVQLVESGGGLVQPGGSLRLSCVASGDVHKINFLGWYRQAPGKEREKVAHISIGDQTDYADSAKGRFTISRDESKNMVYLQMNSLKPEDTAVYFCRAFSRIYPYDYWGQGTLVTVSSGGGGSTHTCPPCPAPPVAGPSVFLFPPKPKDTLMISRTPEVTCVVVDVKHEDPEVKFNWYVDGVEVHNAKTKPREEQYNSTYRVVSVLTVLHQDWLNGKEYKCKVSNKALPAPIEKTISKAKGQPREPQVCTLPPSREEMTKNQVSLSCAVKGFYPSDIAVEWESNGQPENNYKTTPPVLDSDGSFFLVSKLTVDKSRWQQGNVFSCSVMHEALHNRFTQKSLSLSPGK heavy 2: EVQLVQSGAEVKKPGASVKVSCKASGYKFSSYWIEWVKQAPGQGLEWIGEILPGSDTTNYAQNFQDRVTFTSDTSISTAYMELSRLRSDDTAVYYCARDRGNYRAWFGYWGQGTLVTVSSASTKGPSVFPLAPSSKSTSGGTAALGCLVKDYFPEPVTVSWNSGALTSGVHTFPAVLQSSGLYSLSSVVTVPSSSLGTQTYICNVNHKPSNTKVDKRVEPKSCDKTGGSEVQLLESGGGLVQPGGSLRLSCAASGFTFTDYAIGWFRQAPGKEREGVSCIRVSDGSTYYADSVKGRFTISRDSSKNTLYLQMNSLRAEDTAVYYCAAGSLYTCVQSIVWPARPYYDMDYWGQGTLVTVSSGGGGSTHTCPPCPAPPVAGPSVFLFPPKPKDTLMISRTPEVTCVVVDVKHEDPEVKFNWYVDGVEVHNAKTKPREEQYNSTYRVVSVLTVLHQDWLNGKEYKCKVSNKALPAPIEKTISKAKGQPREPQVYTLPPCREEMTKNQVSLWCLVKGFYPSDIAVEWESNGQPENNYKTTPPVLDSDGSFFLYSKLTVDKSRWQQGNVFSCSVMHEALHNHYTQKSLSLSPGK	2.24	4.8	binds
